B2: Dynamin-Related Protein 1 (DRP1), wild type, full length, isoform 2 (enzyme, human, UniProt O00429-3 1-710, looked up)
chain: MEALIPVINKLQDVFNTVGADIIQLPQIVVVGTQSSGKSSVLESLVGRDLLPRGTGIVTRRPLILQLVHVSQEDKRKTTGEENGVEAEEWGKFLHTKNKLYTDFDEIRQEIENETERISGNNKGVSPEPIHLKIFSPNVVNLTLVDLPGMTKVPVGDQPKDIELQIRELILRFISNPNSIILAVTAANTDMATSEALKISREVDPDGRRTLAVITKLDLMDAGTDAMDVLMGRVIPVKLGIIGVVNRSQLDINNKKSVTDSIRDEYAFLQKKYPSLANRNGTKYLARTLNRLLMHHIRDCLPELKTRINVLAAQYQSLLNSYGEPVDDKSATLLQLITKFATEYCNTIEGTAKYIETSELCGGARICYIFHETFGRTLESVDPLGGLNTIDILTAIRNATGPRPALFVPEVSFELLVKRQIKRLEEPSLRCVELVHEEMQRIIQHCSNYSTQELLRFPKLHDAIVEVVTCLLRKRLPVTNEMVHNLVAIELAYINTKHPDFADACGLMNNNIEEQRRNRLARELPSAVSRDKLIQDSRRETKNVASGGGGVGDGVQEPTTGNWRGMLKTSKAEELLAEEKSKPIPIMPASPQKGHAVNLLDVPVPVARKLSAREQRDCEVIERLIKSYFLIVRKNIQDSVPKAVMHFLVNHVKDTLQSELVGQLYKSSLLDDLLTESEDMAQRRKEAADMLKALQGASQIIAEIRETHLW

The target of series [1] is B2. The series is described as follows: cryo-EM structure.
Series [2] deals with the molecule itself. The series is described as follows: cryo-EM structure.
Series [3] deals with the molecule itself. The series is described as follows: SEC. In general terms: Size exclusion chromatography separates by hydrodynamic size, large species first.

As a reminder, the stoichiometry N is the number of molecules, sites or subunits per partner or assembly.

B1: Mitochondrial Dynamics 49, MID49_(126-454) (domain or fragment, human, UniProt Q96C03-1 126-454, looked up)
chain: TLQERLLAFERDRVTIPAAQVALAKQLAGDIALELQAYFRSKFPELPFGAFVPGGPLYDGLQAGAADHVRLLVPLVLEPGLWSLVPGVDTVARDPRCWAVRRTQLEFCPRGSSPWDRFLVGGYLSSRVLLELLRKALAASVNWPAIGSLLGCLIRPSMASEELLLEVQHERLELTVAVLVAVPGVDADDRLLLAWPLEGLAGNLWLQDLYPVEAARLRALDDHDAGTRRRLLLLLCAVCRGCSALGQLGRGHLTQVVLRLGEDNVDWTEEALGERFLQALELLIGSLEQASLPCHFNPSVNLFSSLREEEIDDIGYALYSGLQEPEGLL
In the case of B1, the binding result in series [1] was “binds”. As for B2, in series [2], the binding result is recorded as “binds”.

B3: DRP1_(G362D), full length, disease-associated mutant (enzyme, human, UniProt O00429-3 1-710, looked up)
chain: MEALIPVINKLQDVFNTVGADIIQLPQIVVVGTQSSGKSSVLESLVGRDLLPRGTGIVTRRPLILQLVHVSQEDKRKTTGEENGVEAEEWGKFLHTKNKLYTDFDEIRQEIENETERISGNNKGVSPEPIHLKIFSPNVVNLTLVDLPGMTKVPVGDQPKDIELQIRELILRFISNPNSIILAVTAANTDMATSEALKISREVDPDGRRTLAVITKLDLMDAGTDAMDVLMGRVIPVKLGIIGVVNRSQLDINNKKSVTDSIRDEYAFLQKKYPSLANRNGTKYLARTLNRLLMHHIRDCLPELKTRINVLAAQYQSLLNSYGEPVDDKSATLLQLITKFATEYCNTIEGTAKYIETSELCDGARICYIFHETFGRTLESVDPLGGLNTIDILTAIRNATGPRPALFVPEVSFELLVKRQIKRLEEPSLRCVELVHEEMQRIIQHCSNYSTQELLRFPKLHDAIVEVVTCLLRKRLPVTNEMVHNLVAIELAYINTKHPDFADACGLMNNNIEEQRRNRLARELPSAVSRDKLIQDSRRETKNVASGGGGVGDGVQEPTTGNWRGMLKTSKAEELLAEEKSKPIPIMPASPQKGHAVNLLDVPVPVARKLSAREQRDCEVIERLIKSYFLIVRKNIQDSVPKAVMHFLVNHVKDTLQSELVGQLYKSSLLDDLLTESEDMAQRRKEAADMLKALQGASQIIAEIRETHLW
As to B3, in series [3], the “stoichiometry N” value is 2.

The values are drawn from publication doi:10.1101/172809 (bioRxiv, 2017).
